Measurements: PMC7439691, “SRSF1 regulates exosome microRNA enrichment in human cancer cells”

Columns and labels:
GST-SRSF1 [1] = molecular target: T1, GST-SRSF1 (human, UniProt Q07955 1-248); experiment: competition; EMSA vs IRD-800 miR-1246; did not alter binding; EMSA: 40 mM Tris pH 8.0, 30 mM KCl, 1 mM MgCl2, 0.001% NP40, 1 mM DTT, 5% glycerol, room temperature 40 min, 4% native gel; details: protein: recombinant; tags: N-terminal GST (pGEX6P); no self-complementarity
GST-SRSF1 [2] = molecular target: T1, GST-SRSF1; experiment: competition; EMSA vs IRD-800 miR-1246; concentration-dependent; dissociation constant only in Fig. 6f; EMSA: 40 mM Tris pH 8.0, 30 mM KCl, 1 mM MgCl2, 0.001% NP40, 1 mM DTT, 5% glycerol, room temperature 40 min, 4% native gel; details: protein: recombinant; tags: N-terminal GST (pGEX6P); no self-complementarity

T1 sequence (Q07955 whole entry): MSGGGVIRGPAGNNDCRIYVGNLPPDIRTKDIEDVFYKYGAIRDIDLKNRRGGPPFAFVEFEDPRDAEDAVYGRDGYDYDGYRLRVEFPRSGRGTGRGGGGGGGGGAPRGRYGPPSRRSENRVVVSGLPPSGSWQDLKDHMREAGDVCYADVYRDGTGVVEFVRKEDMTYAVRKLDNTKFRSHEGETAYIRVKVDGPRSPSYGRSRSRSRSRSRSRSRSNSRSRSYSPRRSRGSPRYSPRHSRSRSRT

Row | Binder | binding result (GST-SRSF1 [1]) | binding result (GST-SRSF1 [2])
1 | UUGGACUAGGACUAGGAU (ssRNA) [Decoy mimic 1 (D1)] | no binding | –
2 | AGGAAGGAAGGAAGGA (ssRNA) [Decoy mimic 2 (D2)] | – | binds
